# Source: article PMC4791140 (Molecular Biology of the Cell, 2016)
# T1: MBP-tagged WHAMM membrane-interaction domain (WMD) (human, UniProt Q8TF30 1-260)
# T1 sequence (looked up): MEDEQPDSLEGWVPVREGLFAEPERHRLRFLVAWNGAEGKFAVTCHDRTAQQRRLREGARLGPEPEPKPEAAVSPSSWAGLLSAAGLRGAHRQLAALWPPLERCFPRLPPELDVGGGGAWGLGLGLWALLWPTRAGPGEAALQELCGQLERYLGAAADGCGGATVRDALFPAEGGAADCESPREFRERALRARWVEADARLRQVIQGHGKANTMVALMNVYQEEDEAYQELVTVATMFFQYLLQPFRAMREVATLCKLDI
# B1: GST-Rab1a, membrane-extracted prenylated form (Rab1(M)) (natural protein)
# chain: not shown
# modifications: prenylated (residues not stated)
# Biological target: T1, MBP-tagged WHAMM membrane-interaction …
# Test: pull-down
binder,measurement,value
B1,binding result,binds
